Results as given in patent US20160264649A1.

What was measured:
Experiment in all cases: cell-based or functional assay
[1] = target: HIV-1 92RW020 Env (HIV-1)
HIV-1 VLGCA1 Env (HIV-1) = target: HIV-1 VLGCA1 Env (HIV-1)
[2] = target: HIV-1 MGRM-A-002 Env (HIV-1)
[3] = target: HIV-1 94UG103 Env (HIV-1)
[4] = target: HIV-1 93UG077 Env (HIV-1)
[5] = target: HIV-1 MGRM-A-008 Env (HIV-1)
[6] = target: HIV-1 92RW024 Env (HIV-1)
[7] = target: HIV-1 MGRM-A-006 Env (HIV-1)
[8] = target: HIV-1 MGRM-A-005 Env (HIV-1)
[9] = target: HIV-1 92RW021 Env (HIV-1)
[10] = target: HIV-1 MGRM-A-001 Env (HIV-1)
[11] = target: HIV-1 94KE105 Env (HIV-1)
[12] = target: HIV-1 MGRM-A-011 Env (HIV-1)
[13] = target: HIV-1 MGRM-A-013 Env (HIV-1)
[14] = target: HIV-1 MGRM-A-007 Env (HIV-1)
[15] = target: HIV-1 92UG037 Env (HIV-1)
[16] = target: HIV-1 92UG031 Env (HIV-1)
[17] = target: HIV-1 MGRM-A-014 Env (HIV-1)
[18] = target: HIV-1 93RW029 Env (HIV-1)
[19] = target: HIV-1 MGRM-A-004 Env (HIV-1)
[20] = target: HIV-1 MGRM-A-010 Env (HIV-1)
[21] = target: HIV-1 92RW026 Env (HIV-1)
[22] = target: HIV-1 MGRM-A-009 Env (HIV-1)
[23] = target: HIV-1 92RW008 Env (HIV-1)
[24] = target: HIV-1 92RW009 Env (HIV-1)
[25] = target: HIV-1 MGRM-A-012 Env (HIV-1)
[26] = target: HIV-1 MGRM-A-003 Env (HIV-1)
[27] = target: HIV-1 MGRM-AG-005 Env (HIV-1)
[28] = target: HIV-1 QH0692.42 (Acute) Env on pseudovirus (HIV-1)
[29] = target: HIV-1 MGRM-D-014 Env (HIV-1)
[30] = target: HIV-1 MGRM-D-024 Env (HIV-1)
[31] = target: HIV-1 92UG046 Env (HIV-1)
[32] = target: HIV-1 MGRM-G-015 Env (HIV-1)
[33] = target: HIV-1 MGRM-D-021 Env (HIV-1)
[34] = target: HIV-1 MGRM-AG-013 Env (HIV-1)
[35] = target: HIV-1 MGRM-D-029 Env (HIV-1)
[36] = target: HIV-1 MGRM-AG-012 Env (HIV-1)
[37] = target: HIV-1 MGRM-D-013 Env (HIV-1)
[38] = target: HIV-1 MGRM-C-007 Env on pseudovirus (HIV-1)
[39] = target: HIV-1 MGRM-C-008 Env on pseudovirus (HIV-1)
[40] = target: HIV-1 JRCSF Env on pseudovirus (HIV-1) (UniProt P20871)
[41] = target: HIV-1 93IN905 Env on pseudovirus (HIV-1)
[42] = target: HIV-1 MGRM-AG-006 Env (HIV-1)
[43] = target: HIV-1 LAVIC_18 Env on pseudovirus (HIV-1)
[44] = target: HIV-1 MGRM-AE-008 Env (HIV-1)
HIV-1 NL43 Env (HIV-1) = target: HIV-1 NL43 Env (HIV-1)
[45] = target: HIV-1 MGRM-C-014 Env on pseudovirus (HIV-1)
[46] = target: HIV-1 NL43 Env on pseudovirus (HIV-1)
[47] = target: HIV-1 MGRM-C-025 Env on pseudovirus (HIV-1)
[48] = target: HIV-1 MGRM-F1-017 Env (HIV-1)
[49] = target: HIV-1 98CN009 Env on pseudovirus (HIV-1)
[50] = target: HIV-1 MGRM-D-002 Env (HIV-1)
[51] = target: HIV-1 MGRM-C-009 Env on pseudovirus (HIV-1)
[52] = target: HIV-1 SC422661.8 (Acute) Env on pseudovirus (HIV-1)

2F5 (antibody) was tested, and the neutralization IC50 [1] was 3.36 µg/mL, the neutralization IC50 (HIV-1 VLGCA1 Env (HIV-1)) was 3.9 µg/mL and the neutralization IC50 [2] was > 50 µg/mL. For the same substance, the neutralization IC50 [3] was 1.92 µg/mL, the neutralization IC50 [4] was 3.3 µg/mL and the neutralization IC50 [5] was > 50 µg/mL. The neutralization IC50 [6] was 8.22 µg/mL, the neutralization IC50 [7] was 15.7 µg/mL and the neutralization IC50 [8] was 5.7 µg/mL. For the same substance, the neutralization IC50 [9] was 4.16 µg/mL, the neutralization IC50 [10] was > 50 µg/mL and the neutralization IC50 [11] was > 50 µg/mL. The neutralization IC50 [12] was > 50 µg/mL, the neutralization IC50 [13] was 0.66 µg/mL and the neutralization IC50 [14] was 16.3 µg/mL. The neutralization IC50 [15] was 3.24 µg/mL, the neutralization IC50 [16] was 3.81 µg/mL and the neutralization IC50 [17] was 1.43 µg/mL. The neutralization IC50 [18] was > 50 µg/mL, the neutralization IC50 [19] was 7.49 µg/mL and the neutralization IC50 [20] was 20.8 µg/mL. It also gave a neutralization IC50 [21] of 8.63 µg/mL, a neutralization IC50 [22] of 9.4 µg/mL and a neutralization IC50 [23] of 10.4 µg/mL. The neutralization IC50 [24] was 39.1 µg/mL, the neutralization IC50 [25] was 2.36 µg/mL and the neutralization IC50 [26] was 7.37 µg/mL. The IC50 (µg/ml), pseudovirus neutralization [27] was > 50 µg/mL, the IC50 [28] was 5.42 µg/mL and the IC50 (µg/ml), pseudovirus neutralization [29] was 2.22 µg/mL. For the same substance, the IC50 (µg/ml), pseudovirus neutralization [30] was > 50 µg/mL, the IC50 (µg/ml), pseudovirus neutralization [31] was > 50 µg/mL and the IC50 (µg/ml), pseudovirus neutralization [32] was 0.43 µg/mL. The IC50 (µg/ml), pseudovirus neutralization [33] was > 50 µg/mL, the IC50 (µg/ml), pseudovirus neutralization [34] was 1.79 µg/mL and the IC50 (µg/ml), pseudovirus neutralization [35] was > 50 µg/mL. The IC50 (µg/ml), pseudovirus neutralization [36] was 0.33 µg/mL, the IC50 (µg/ml), pseudovirus neutralization [37] was 2.12 µg/mL and the IC50 [38] was > 50 µg/mL. For the same substance, the IC50 [39] was > 50 µg/mL, the IC50 [40] was 1.85 µg/mL and the IC50 [41] was > 50 µg/mL. The IC50 (µg/ml), pseudovirus neutralization [42] was 0.85 µg/mL, the IC50 [43] was > 50 µg/mL and the IC50 (µg/ml), pseudovirus neutralization [44] was > 50 µg/mL. The neutralization IC50 (HIV-1 NL43 Env (HIV-1)) was 2.41 µg/mL, the neutralization IC90 (HIV-1 NL43 Env (HIV-1)) was 19.3 µg/mL and the IC50 [45] was > 50 µg/mL. For the same substance, the IC50 [46] was 2.02 µg/mL, the IC50 [47] was > 50 µg/mL and the IC50 (pseudovirus neutralization) [48] was > 50 µg/mL. For the same substance, the IC50 [49] was > 50 µg/mL, the IC50 (µg/ml), pseudovirus neutralization [50] was 24.6 µg/mL and the IC50 [51] was > 50 µg/mL. The IC50 [52] was > 50 µg/mL.

b12 (antibody) was tested, and the neutralization IC50 [1] was > 50 µg/mL, the neutralization IC50 (HIV-1 VLGCA1 Env (HIV-1)) was > 50 µg/mL and the neutralization IC50 [2] was > 50 µg/mL. The neutralization IC50 [3] was 6.92 µg/mL, the neutralization IC50 [4] was 47 µg/mL and the neutralization IC50 [5] was > 50 µg/mL. For the same substance, the neutralization IC50 [6] was > 50 µg/mL, the neutralization IC50 [7] was 13.6 µg/mL and the neutralization IC50 [8] was 3.64 µg/mL. For the same substance, the neutralization IC50 [9] was > 50 µg/mL, the neutralization IC50 [10] was > 50 µg/mL and the neutralization IC50 [11] was > 50 µg/mL. For the same substance, the neutralization IC50 [12] was 4.01 µg/mL, the neutralization IC50 [13] was 7.04 µg/mL and the neutralization IC50 [14] was > 50 µg/mL. For the same substance, the neutralization IC50 [15] was > 50 µg/mL, the neutralization IC50 [16] was > 50 µg/mL and the neutralization IC50 [17] was > 50 µg/mL. The neutralization IC50 [18] was > 50 µg/mL, the neutralization IC50 [19] was > 50 µg/mL and the neutralization IC50 [20] was > 50 µg/mL. For the same substance, the neutralization IC50 [21] was > 50 µg/mL, the neutralization IC50 [22] was 4.34 µg/mL and the neutralization IC50 [23] was 9.46 µg/mL. The neutralization IC50 [24] was > 50 µg/mL, the neutralization IC50 [25] was > 50 µg/mL and the neutralization IC50 [26] was > 50 µg/mL. For the same substance, the IC50 (µg/ml), pseudovirus neutralization [27] was > 50 µg/mL, the IC50 [28] was 0.73 µg/mL and the IC50 (µg/ml), pseudovirus neutralization [29] was > 50 µg/mL. The IC50 (µg/ml), pseudovirus neutralization [30] was 5.92 µg/mL, the IC50 (µg/ml), pseudovirus neutralization [31] was 0.07 µg/mL and the IC50 (µg/ml), pseudovirus neutralization [32] was > 50 µg/mL. The IC50 (µg/ml), pseudovirus neutralization [33] was 5.23 µg/mL, the IC50 (µg/ml), pseudovirus neutralization [34] was > 50 µg/mL and the IC50 (µg/ml), pseudovirus neutralization [35] was > 50 µg/mL. For the same substance, the IC50 (µg/ml), pseudovirus neutralization [36] was 10.4 µg/mL, the IC50 (µg/ml), pseudovirus neutralization [37] was > 50 µg/mL and the IC50 [38] was > 50 µg/mL. It also gave an IC50 [39] of 1.51 µg/mL, an IC50 [40] of 0.21 µg/mL and an IC50 [41] of 21.4 µg/mL. The IC50 (µg/ml), pseudovirus neutralization [42] was > 50 µg/mL, the IC50 [43] was > 50 µg/mL and the IC50 (µg/ml), pseudovirus neutralization [44] was > 50 µg/mL. The neutralization IC50 (HIV-1 NL43 Env (HIV-1)) was 0.06 µg/mL, the neutralization IC90 (HIV-1 NL43 Env (HIV-1)) was 0.28 µg/mL and the IC50 [45] was > 50 µg/mL. The IC50 [46] was 0.17 µg/mL, the IC50 [47] was > 50 µg/mL and the IC50 (pseudovirus neutralization) [48] was > 50 µg/mL. The IC50 [49] was 1.52 µg/mL, the IC50 (µg/ml), pseudovirus neutralization [50] was > 50 µg/mL and the IC50 [51] was > 50 µg/mL. It also gave an IC50 [52] of 6.11 µg/mL.
